Test results from US20240092919A1.

Assays:
[1] = biological target: human CD123 on cells (human) (UniProt P26951); test: cell-based or functional assay
[2] = biological target: human CD33 on cells (human) (UniProt P20138); test: cell-based or functional assay
Sequence of human CD33 on cells (human) (P20138 18-364): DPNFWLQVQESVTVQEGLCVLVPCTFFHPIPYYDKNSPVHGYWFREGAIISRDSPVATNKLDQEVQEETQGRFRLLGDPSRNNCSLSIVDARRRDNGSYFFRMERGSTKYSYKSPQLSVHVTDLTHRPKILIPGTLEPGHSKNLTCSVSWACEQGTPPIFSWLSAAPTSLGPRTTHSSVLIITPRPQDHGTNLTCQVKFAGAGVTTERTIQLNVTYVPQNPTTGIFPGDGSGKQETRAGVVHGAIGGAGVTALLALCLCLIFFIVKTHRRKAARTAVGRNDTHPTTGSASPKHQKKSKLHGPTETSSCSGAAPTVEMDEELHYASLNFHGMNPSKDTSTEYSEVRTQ

Sequence of human CD123 on cells (human) (P26951 19-378 limits assumed): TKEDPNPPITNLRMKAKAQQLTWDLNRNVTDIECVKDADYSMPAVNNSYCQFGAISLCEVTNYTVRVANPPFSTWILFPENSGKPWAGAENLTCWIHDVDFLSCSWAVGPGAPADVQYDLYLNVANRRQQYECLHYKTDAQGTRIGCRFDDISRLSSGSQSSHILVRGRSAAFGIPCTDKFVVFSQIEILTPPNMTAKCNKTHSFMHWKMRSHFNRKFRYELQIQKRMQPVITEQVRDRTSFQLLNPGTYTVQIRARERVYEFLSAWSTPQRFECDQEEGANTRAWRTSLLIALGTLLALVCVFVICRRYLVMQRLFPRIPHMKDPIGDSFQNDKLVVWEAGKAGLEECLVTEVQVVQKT

Question: Which % Lysis, human T cell mediated KG-1a cell killing [1] does the source give for “CD33/CD3 BiTE AMG 330 (bispecific antibody)” here?
Answer: 15%

Question: And the EC50 (M), flow cytometry based human T cell mediated KG-1a cell killing, E:T 10:1 [1]?
Answer: 8.7e-12 M

Question: And the % Lysis, human T cell mediated U-937 cell killing [2]?
Answer: 55%

Question: And the EC50 (M), flow cytometry based human T cell mediated U-937 cell killing, E:T 10:1 [2]?
Answer: 1.1e-11 M

Question: How did the % Lysis, human T cell mediated KG-1a cell killing [1] turn out when “CD123/CD3 DART MGD006 (bispecific antibody)” was run?
Answer: 58%

Question: What about the EC50 (M), flow cytometry based human T cell mediated KG-1a cell killing, E:T 10:1 [1] of the same substance?
Answer: 3e-12 M

Question: And the % Lysis, human T cell mediated U-937 cell killing [2]?
Answer: 13%

Question: And the EC50 (M), flow cytometry based human T cell mediated U-937 cell killing, E:T 10:1 [2]?
Answer: 8.9e-13 M
